Results taken from US20120276102A1 (Pfizer, published 2012).
Numbering of substitutions follows the chain as printed. Blank lines part the entries; values can stand above or below the binder they belong to.

What was measured:
[1] = molecular target: T1, murine IL-21R extracellular domain His-Flag fusion protein (murine, UniProt Q9JHX3 20-237); assay: competition ELISA: scFv mixed with biotinylated murine IL-21R-H/F, added to plate-bound 18A5 IgG (competitor); captured receptor detected with HRP-streptavidin, A450
T1 construct: Biotinylated in the ELISAs; also called mIL-21R-H/F; murine IL-21R-H/F
Protocol: Blocked plates were washed 3× with PBS, and 50 μl/well of scFv/IL-21R mixtures were transferred to the appropriate plates and incubated for 1 hr at RT. Plates were washed 5× with PBS prior to the addition of a 1:6000 dilution of horseradish peroxidase-conjugated streptavidin (Southern Biotech, Birmingham, Ala.) secondary antibody to detect bound biotinylated mIL-21R-H/F. Plates were then incubated for 1 hr at RT and washed 7× with PBS. Signal was developed using 3,3′,5,5′-tetramethylbenzidine (TMB), the reaction stopped with H₂SO₄, and the absorbance read at 450 nm on an ENVISION™ plate reader (Perkin Elmer).

[2] = molecular target: T2, human complement component C1q (human, UniProt P02745 23-245; P02746 28-253; P02747 29-245); assay: C1q ELISA, antibody coated at 5 µg/ml, human serum 1:50
T2 construct: Native C1q in diluted human serum
T2 sequence (P02745 23-245, chain 1 of 3): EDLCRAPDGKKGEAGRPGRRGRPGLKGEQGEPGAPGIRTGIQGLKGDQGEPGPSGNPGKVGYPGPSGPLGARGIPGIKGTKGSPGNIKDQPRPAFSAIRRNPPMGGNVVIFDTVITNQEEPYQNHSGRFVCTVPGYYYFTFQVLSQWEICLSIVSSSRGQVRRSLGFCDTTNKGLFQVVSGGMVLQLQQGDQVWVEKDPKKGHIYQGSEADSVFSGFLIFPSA
T2 sequence (P02746 28-253, chain 2 of 3): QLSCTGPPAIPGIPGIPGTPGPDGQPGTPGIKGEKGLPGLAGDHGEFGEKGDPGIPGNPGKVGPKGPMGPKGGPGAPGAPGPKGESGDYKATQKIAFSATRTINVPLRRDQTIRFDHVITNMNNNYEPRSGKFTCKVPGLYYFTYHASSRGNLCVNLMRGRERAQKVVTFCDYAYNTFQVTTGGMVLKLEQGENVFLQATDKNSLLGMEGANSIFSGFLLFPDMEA
T2 sequence (P02747 29-245, chain 3 of 3): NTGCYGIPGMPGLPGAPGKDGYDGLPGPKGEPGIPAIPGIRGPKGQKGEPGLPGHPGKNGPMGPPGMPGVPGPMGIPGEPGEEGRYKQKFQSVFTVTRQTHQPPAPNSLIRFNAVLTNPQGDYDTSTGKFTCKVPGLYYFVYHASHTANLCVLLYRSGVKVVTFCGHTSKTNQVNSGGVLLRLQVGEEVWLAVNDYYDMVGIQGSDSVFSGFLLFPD
Protocol: In order to determine whether cell-surface binding by anti-IL-21R antibodies is likely to lead to complement-dependent cytotoxicity (CDC), the antibodies were tested for their ability to bind to the complement component C1q in an ELISA. […] Diluted antibodies (100 μl) were coated onto a COSTAR® high-binding ELISA plate (Corning Life Sciences, Lowell, Mass.) overnight at 4° C. Plates were washed 3× with PBS/Tween-20 and blocked with 200 μl of blocking buffer (0.1 M NaPO₄, 0.1 M NaCl, 0.1% gelatin, 0.01% Tween) for 1 hr at RT. Human serum previously determined to contain C1q (Quidel, San Diego, Calif.) was diluted 1:50 in PBS. After 1 hr of blocking, plates were washed and 100 μl of diluted serum was added to each well and incubated for 2 hr at RT on a shaker. Following three washes, 100 μl A of 0.1 μg/ml chicken polyclonal anti-human C1q antibody (AbCam, Cambridge, Mass.) was added to each well and incubated for 1 hr at RT. Plates were again washed and incubated with 100 μA of a rabbit polyclonal antibody to chicken Ig-Y—HRP diluted 1:4000 (AbCam) for 1 hr at RT. Plates were washed and developed with TMB for 5 min, followed by 50 μA of 1 M H₂SO₄ to stop the reaction, and then read at 450 nm.

[3] = molecular target: T3, cynomolgus monkey IL-21R expressed on cells (cynomolgus monkey, UniProt G7Q0S8 41-559); assay: cell-based ELISA on CHO cells transiently expressing cynomolgus monkey IL-21R; HRP anti-human IgG, A450
T3 construct: whole, on cells

[4] = molecular target: T4, rat IL-21R expressed on cells (rat); assay: cell-based ELISA on CHO cells transiently expressing rat IL-21R; HRP anti-human IgG, A450
T4 construct: whole, on cells
Protocol: (§1) FIG. 6(a-l) depicts the binding of 21 anti-IL-21R IgGs to CHO cells transiently expressing human IL-21R (FIGS. 6a-c), rat IL-21R (FIGS. 6d-f), cynomolgus monkey IL-21R (FIGS. 6g-i), and human gamma common chain (FIGS. 6j-1). CHO cells were transiently transfected with IL-21R or the control gamma common chain, and binding was detected with HRP-conjugated anti-human IgG in a cell-based ELISA.
(§2) A subset of binding proteins was tested for binding to rat, cynomolgus monkey, human IL-21R, or human IL-2R-γ common subunit expressed transiently on the surfaces of CHO-PA-Dukx cells. Cells were transfected 48 hr prior to the assay. On the day of the assay, cells were washed gently 5× in PBS containing 0.9 mM CaCl₂ and 0.45 mM MgCl₂ (PBS/CaMg) on an automated plate washer (Titertek, Huntsville, Ala.), and blocked for 1 hr at RT in PBS/CaMg/5% nonfat dry milk. Conditioned media from transiently expressed anti-IL-21R IgGs were serially diluted in blocking buffer and added to the cells in the blocked plates for 1 hr at RT. Cells were washed 5× with PBS/CaMg and then incubated with horseradish peroxidase-conjugated anti-human IgG for 1 hr at RT. Cells were then washed 10× in PBS/CaMg and all of the wash buffer was removed. Cells were incubated with 100 μl TMB until the color reaction reached saturation, stopped with 100 μl of 0.18 M H₂SO₄, and read at A450 on a Perkin Elmer ENVISION™ plate reader.

[5] = molecular target: murine IL-21R expressed on cells (murine, UniProt Q9JHX3 20-529); assay: cell-based or functional assay
[6] = molecular target: T5, human IL-21R expressed on cells (human, UniProt Q9HBE5 20-538); assay: cell-based or functional assay
T5 sequence (Q9HBE5 20-538 limits assumed): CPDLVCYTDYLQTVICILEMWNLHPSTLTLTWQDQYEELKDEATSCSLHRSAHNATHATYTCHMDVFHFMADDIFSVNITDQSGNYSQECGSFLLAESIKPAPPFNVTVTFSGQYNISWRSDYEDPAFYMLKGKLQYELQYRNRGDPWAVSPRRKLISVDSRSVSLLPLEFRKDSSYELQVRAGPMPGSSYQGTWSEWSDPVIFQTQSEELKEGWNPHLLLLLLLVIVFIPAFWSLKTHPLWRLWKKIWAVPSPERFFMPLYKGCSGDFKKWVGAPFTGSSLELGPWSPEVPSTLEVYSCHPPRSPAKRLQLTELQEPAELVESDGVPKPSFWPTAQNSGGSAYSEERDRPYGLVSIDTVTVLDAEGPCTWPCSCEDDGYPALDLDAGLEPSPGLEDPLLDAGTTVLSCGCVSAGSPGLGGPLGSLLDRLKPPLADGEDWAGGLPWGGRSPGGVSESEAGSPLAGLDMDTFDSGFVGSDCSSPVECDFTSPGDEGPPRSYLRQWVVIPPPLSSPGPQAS

[7] = molecular target: T6, human IL-13-His/FLAG (human, UniProt P35225 35-146, limits assumed); assay: SPR, Ab captured
T6 construct: Unrelated His/FLAG-tagged control; also called human IL-13-H/F
T6 sequence (P35225 35-146 limits assumed): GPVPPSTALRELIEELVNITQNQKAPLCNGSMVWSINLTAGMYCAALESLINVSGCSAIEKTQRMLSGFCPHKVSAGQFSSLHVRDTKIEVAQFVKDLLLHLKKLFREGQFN
Protocol: (§3) The specificity of binding of a subset of transiently expressed anti-IL-21R binding proteins (here antibodies) was tested on a BIACORE™ 2000 surface plasmon resonance instrument. Anti-human-IgG, anti-murine immunoglobulin antibodies, and murine IL-21R-H/F were immobilized onto a research-grade carboxymethyl-dextran chip (CM5) using standard amine coupling. The sensor chip surface was activated with EDC/NHS for 7 min at a flow rate of 20 μl/min. The first flow cell was used as reference surface to correct for bulk refractive index, matrix effects, and nonspecific binding. […] Remaining activated groups were blocked with 1.0 M ethanolamine (pH 8.0). The molecular weights of the anti-human IgG and the anti-murine IgG were both 150 kD, and the molecular weight of the IL-21R monomer was 27 kD.
(§4) Conditioned media containing anti-IL-21R antibodies and antibody controls (murine anti-human IL-2Rβ and murine anti-human IL-4R(R&D Systems, Minneapolis, Minn.); human anti-human IL-13 (Wyeth, Cambridge, Mass.)) were diluted in HBS/EP buffer supplemented with 0.2% bovine serum and injected onto all four flow cells of the BIACORE™ chip, capturing 500-700 (RU) of antibody on the species-appropriate capture antibody. Following a 5 sec washing period, 50 nM solutions of a positive control protein (murine IL-21R-H/F), two human proteins related to IL-21R (human IL-2Rβ and human sIL-4R(R&D Systems)), or an unrelated His/FLAG-tagged protein (human IL-13-H/F) were injected over the captured antibodies on the chip. The association and dissociation phases were monitored for 120 and 180 sec, respectively, followed by two 5 μl injections of glycine (pH 1.5) to regenerate a fully active capturing surface. All binding experiments were done at 25° C. in HBS/EP buffer. Blank and buffer effects were subtracted for each sensorgram using double referencing.

[8] = molecular target: T7, human soluble IL-4R (human, UniProt P24394 26-232, limits assumed); assay: SPR, Ab captured
T7 construct: also called human sIL-4R
Protocol: as §3, §4

[9] = molecular target: T8, human IL-2Rβ (human, UniProt P14784 27-239); assay: SPR, Ab captured
T8 sequence (looked up): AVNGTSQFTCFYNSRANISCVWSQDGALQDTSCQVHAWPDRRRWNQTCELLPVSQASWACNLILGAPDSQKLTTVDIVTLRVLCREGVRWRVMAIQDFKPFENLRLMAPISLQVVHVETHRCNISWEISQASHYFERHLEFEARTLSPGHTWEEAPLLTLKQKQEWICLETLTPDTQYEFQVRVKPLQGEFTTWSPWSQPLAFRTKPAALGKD
Protocol: as §3, §4

[10] = molecular target: T9, human gamma (γ) common chain expressed on CHO cells (human, UniProt P31785 23-369); assay: cell-based ELISA on CHO cells transiently expressing human gamma common chain; HRP anti-human IgG, A450
T9 construct: whole, on cells; Control protein; also called human IL-2R-γ common subunit; human γ-common
T9 sequence (looked up): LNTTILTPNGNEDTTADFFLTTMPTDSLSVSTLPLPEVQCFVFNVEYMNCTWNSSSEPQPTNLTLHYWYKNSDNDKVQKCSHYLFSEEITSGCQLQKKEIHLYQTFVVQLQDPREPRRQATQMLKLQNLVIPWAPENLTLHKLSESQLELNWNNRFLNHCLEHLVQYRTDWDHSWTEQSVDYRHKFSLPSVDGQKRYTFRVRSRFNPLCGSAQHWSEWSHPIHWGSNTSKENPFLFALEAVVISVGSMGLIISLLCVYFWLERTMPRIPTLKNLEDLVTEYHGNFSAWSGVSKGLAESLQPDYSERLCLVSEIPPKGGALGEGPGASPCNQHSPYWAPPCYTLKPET
Protocol: as §1, §2

[11] = molecular target: T5, human IL-21R expressed on cells; assay: cell-based ELISA on CHO cells transiently expressing human IL-21R; HRP anti-human IgG, A450
Protocol: as §1, §2

[12] = molecular target: T9, human gamma (γ) common chain expressed …; assay: cell ELISA, CHO cells
[13] = molecular target: T3, cynomolgus monkey IL-21R expressed on …; assay: cell ELISA, CHO cells
[14] = molecular target: T5, human IL-21R expressed on cells; assay: cell ELISA, CHO cells
[15] = molecular target: T4, rat IL-21R expressed on cells; assay: cell ELISA, CHO cells
[16] = molecular target: T4, rat IL-21R expressed on cells; assay: cell-based or functional assay
[17] = molecular target: murine IL-21 (murine, UniProt Q9ES17 18-146); assay: cell-based or functional assay

binding result [1]: binds
B1: 18A5 parent scFv (scFv)
scFv: QVQLQESGPGLVKTSETLSLTCAVSGYSISSGYYWGWIRQPPGKGLEWIGSISHTGNTYYNPPLKSRVTISVDTSKNQFSLKLSSVTAADTAVYYCARGGGISRPEYWGKGTLVTVSSGGGGSGGGGSGGGGSALSSELTQDPPVSVALGQTVTLTCQGDSLRTYYASWYQQKSGQAPILLLYGKHKRPSGIPDRFSGSTSGDTASLTITGAQAEDEADYYCNSRDSSGNPHVLFGGGTQLTVL
notes: scFv format of parental 18A5 (not germlined); different molecule from the 18A5 IgG coated on the plate; also called parental 18A5 scFv; scFv parental clone 18A5

binding result [2]: no binding
B2: AbX (antibody, human IgG1)
VH: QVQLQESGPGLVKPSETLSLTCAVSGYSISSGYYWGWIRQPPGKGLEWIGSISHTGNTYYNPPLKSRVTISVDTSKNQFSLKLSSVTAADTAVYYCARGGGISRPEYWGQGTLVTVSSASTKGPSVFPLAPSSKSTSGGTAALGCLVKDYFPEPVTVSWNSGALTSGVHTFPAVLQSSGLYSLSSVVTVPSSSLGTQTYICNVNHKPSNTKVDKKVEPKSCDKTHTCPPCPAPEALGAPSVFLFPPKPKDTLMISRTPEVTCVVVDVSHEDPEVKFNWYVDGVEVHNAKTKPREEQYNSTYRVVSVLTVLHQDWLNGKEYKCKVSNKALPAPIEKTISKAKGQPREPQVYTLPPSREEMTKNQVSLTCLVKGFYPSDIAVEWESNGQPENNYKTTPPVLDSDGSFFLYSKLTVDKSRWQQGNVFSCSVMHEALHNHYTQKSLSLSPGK
VL: SSELTQDPAVSVALGQTVRITCQGDSLRTYYASWYQQKPGQAPVLVIYGKHKRPSGIPDRFSGSSSGNTASLTITGAQAEDEADYYCVARSNKGNPHVLFGGGTQLTVLGQPKAAPSVTLFPPSSEELQANKATLVCLISDFYPGAVTVAWKADSSPVKAGVETTTPSKQSNNKYAASSYLSLTPEQWKSHRSYSCQVTHEGSTVEKTVAPTECS
notes: Same variable domains as AbT; residue limits derived as for m29; also called VHPDM/VL9; copies: 2 + 2

Murine IL-21R-BaF3 Neutralization IC50 [17]: 0.04 nM
B6: murine IL-21R-Fc (Fc fusion, not shown: a dimerising Fc or GST)
chain: not shown

More lines, now with the values behind:

B3: AbJ (antibody, IgG1, V domains shown)
VH: QVQLQESGPGLVKPSETLSLTCAVSGYSISSGYYWGWIRQPPGKGLEWIGSISHTGNTYYNPPLKSRVTISVDTSKNQFSLKLSSVTAADTAVYYCARFMGFGRPEYWGQGTLVTVSS
VL: SSELTQDPAVSVALGQTVRITCQGDSLRTYYASWYQQKPGQAPVLVIYGKHKRPSGIPDRFSGSSSGNTASLTITGAQAEDEADYYCNSRDSSGNPHVLFGGGTQLTVL
notes: As for AbA: IgG1/lambda, CDR3 graft, residue limits derived; also called VH3/VLP
EC50 (read off the curve) [3]: ~0.3 nM | EC50 (read off the curve) [4]: ~0.4 nM | Murine IL-21R-BaF3 Proliferation IC50 [5]: 0.4 nM | Human IL-21R-BaF3 Proliferation IC50 [6]: 0.65 nM | Human IL-21R-TF1 Proliferation IC50 [6]: 4.6 nM | binding result [7]: no binding (tested: 50 nM) | binding result [8]: no binding (tested: 50 nM) | binding result [9]: no binding (tested: 50 nM) | binding result [10]: no binding (tested: 13 nM) | EC50 (read off the curve) [11]: ~0.3 nM | A450 (13 nM Ab) [12]: 0.126 A450 | A450 (13 nM Ab) [13]: 1.27 A450 | A450 (13 nM Ab) [14]: 1.22 A450 | A450 (13 nM Ab) [15]: 1.26 A450

B4: AbW (antibody, human IgG1, V domains shown)
VH: B3 VH
VL: B3 VL with N88V, S89T, D91S, S92V, S93K
IC50, rat T cell proliferation, experiment 1 [16]: 159 nM | IC50, rat T cell proliferation, experiment 2 [16]: 94.7 nM

B5: AbV (antibody, human IgG1, V domains shown)
VH: B3 VH
VL: B3 VL with N88V, S89A, D91S, S92V, S93V
IC50, rat T cell proliferation, experiment 1 [16]: 70.5 nM | IC50, rat T cell proliferation, experiment 2 [16]: 59.2 nM
